The values that follow come from patent publication US20110262446A1 (published 2011).

For orientation: Kd means the concentration at which binding is half-saturated. A lower Kd goes with a tighter complex.

Sequences and labels used below:
B1: M0064-E04 Fab (Fab, V domains shown)
VH: EVQLLESGGGLVQPGGSLRLSCAASGFTFSVYDMNWVRQAPGKGLEWVSSISSSGGGTLYADSVKGRFTISRDNSKNTLYLQMNSLRAEDTAVYYCARDSDTSSYYWYYDLWGRGTLVTVSS
VL: DIQMTQSPSSLSASVGDRVTITCQASHDISNYLNWYQQKPGKAPKLLIYAASRLQSGVPSRFSGGGSGTDFSLTISSLQAEDFATYYCQQSYSFPRTFGQGTNLEIKR
notes: Soluble Fab from phage display; also called M0064-E04(R0032-A03); 566A-M0064-E04
B2: M0072-C06 Fab (Fab, V domains shown)
VH: EVQLLESGGGLVQPGGSLRLSCAASGFTFSAYIMTWVRQAPGKGLEWVSSISPSGGYTVYADSVKGRFTISRDNSKNTLYLQMNSLRAEDTAVYYCARDSGFGDPFDYWGQGTMVTVSS
VL: DIQMTQSPSSLSASVGDRVTITCRASQSIRNYLNWYQQKPGKAPKLLIYAASKLEDGVPSRFSGSGTGTDFTLTIRSLQPEDFASYFCQQSYSSPGITFGPGTKVEIKR
notes: Soluble Fab from phage display; Often printed as M0072-006; also called M0072-006; M0072-C06(R0032-A09)
B3: M0072-G06 Fab (Fab, V domains shown)
VH: EVQLLESGGGLVQPGGSLRLSCAASGFTFSEYVMWWVRQAPGKGLEWVSVISPSGGYTVYADSVKGRFTISRDNSKNTLYLQMNSLRAEDTAVYYCARDRGGATTLDYWGQGTLVTVSS
VL: DIQMTQSPSTLSASVGDRVTITCRASQTISSWLAWYQQKPGKAPKLMIYKAASLGSEVPSRFSGSGSGTEFTLTISSLQPEDFSTYYCQQYKTYPVTFGQGTRLEIKR
notes: Soluble Fab from phage display; also called M0072-G06(R0032-C05)
B4: M0063-F02 Fab (Fab, V domains shown)
VH: EVQLLESGGGLVQPGGSLRLSCAASGFTFSKYEMDWVRQAPGKGLEWVSVISSSGGGTIYADSVKGRFTISRDNSKNTLYLQMNSLRAEDTAMYYCARGRTLYGGAFDIWGQGTMVTVSS
VL: DIQMTQSPSSLSASVGDRVTITCRASQPINTYLNWYQQRPGKAPRILIYTSSTLQSGVPSRFSGSGSGTDFTLTISSVQPEDFATYYCQQSYSFPLTFGGGTKVEIKR
notes: Soluble Fab from phage display; also called M0063-F02(R0032-A01)
B5: M0064-F02 Fab (Fab, V domains shown)
VH: EVQLLESGGGLVQPGGSLRLSCAASGFTFSNYIMWWVRQAPGKGLEWVSVISSSGGMTRYADSVKGRFTISRDNSKNTLYLQMNSLRAEDTAVYYCARDNGDYVGEKGFDIWGQGTMVTVSS
VL: DIQMTQSPSSLSASVGDRVTITCRASQSISNYLNWYQQKPGKAPKLLIYTASTLQSGVPSRFSGSASGTDFTLTINSLQPEDFATYSCQQSYNSPWTFGQGTKVEIKR
notes: Soluble Fab from phage display; also called M0064-F02(R0032-A11); 566A-M0064-F02
B6: M0072-C06 IgG (antibody, V domains shown)
VH: B2 VH
VL: DIQMTQSPSSLSASVGDRVTITCRASQSIRNYLNWYQQKPGKAPKLLIYAASKLEDGVPSRFSGSGTGTDFTLTIRSLQPEDFASYFCQQSYSSPGITFGPGTKVEIK
B7: M0072-E03 IgG (antibody, V domains shown)
VH: EVQLLESGGGLVQPGGSLRLSCAASGFTFSEYEMSWVRQAPGKGLEWVSSIYSSGGWTKYTDSVKGRFTISRDNSKNTLYLQMNSLRAEDTAVYYCAKGVHYDSSGLPIDWYFDLWGRGTLVTVSS
VL: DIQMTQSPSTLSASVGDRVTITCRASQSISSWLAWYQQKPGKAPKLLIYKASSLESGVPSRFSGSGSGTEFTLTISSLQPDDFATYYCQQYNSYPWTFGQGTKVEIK
B8: M0072-G06 IgG (antibody, V domains shown)
VH: B3 VH
VL: DIQMTQSPSTLSASVGDRVTITCRASQTISSWLAWYQQKPGKAPKLMIYKAASLGSEVPSRFSGSGSGTEFTLTISSLQPEDFSTYYCQQYKTYPVTFGQGTRLEIK
B9: M0063-F02 IgG (antibody, V domains shown)
VH: B4 VH
VL: DIQMTQSPSSLSASVGDRVTITCRASQPINTYLNWYQQRPGKAPRILIYTSSTLQSGVPSRFSGSGSGTDFTLTISSVQPEDFATYYCQQSYSFPLTFGGGTKVEIK
notes: IgG form of the Fab; Variable domains as printed for the Fab (LV with its leading Q)
B10: M0070-H08 IgG (antibody, V domains shown)
VH: EVQLLESGGGLVQPGGSLRLSCAASGFTFSRYWMIWVRQAPGKGLEWVSSIRSSGETKYADSVKGRFTISRDNSKNTLYLQMNSLRAEDTAVYYCARGPLSDYYDSSGYYFDAFDIWGQGTMVTVSS
VL: DIQMTQSPSSLSASAGDRVTITCRASQSISSYLNWYQQKPGKAPNLLIYTTSNLQGGVPSRFSGSGSGTDFTLTISSLQPEDFATYYCQQGYSFPLTFGGGTKVEIK
B11: M0072-E03 Fab (Fab, V domains shown)
VH: B7 VH
VL: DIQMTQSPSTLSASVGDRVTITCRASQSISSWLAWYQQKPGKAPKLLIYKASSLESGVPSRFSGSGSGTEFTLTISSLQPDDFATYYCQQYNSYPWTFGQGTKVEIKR
notes: Soluble Fab from phage display; also called M0072-E03(R0032-C03)
B12: M0070-H08 Fab (Fab, V domains shown)
VH: B10 VH
VL: DIQMTQSPSSLSASAGDRVTITCRASQSISSYLNWYQQKPGKAPNLLIYTTSNLQGGVPSRFSGSGSGTDFTLTISSLQPEDFATYYCQQGYSFPLTFGGGTKVEIKR
notes: Soluble Fab from phage display; also called M0070-H08(R0032-A07)

IGF-I, sequence (P05019 49-118 limits assumed): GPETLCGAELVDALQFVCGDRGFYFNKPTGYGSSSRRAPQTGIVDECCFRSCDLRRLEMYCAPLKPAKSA
T1 sequence (P01344 25-91): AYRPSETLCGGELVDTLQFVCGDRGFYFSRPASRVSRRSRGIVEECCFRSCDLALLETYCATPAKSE

The first experiment has as its target T1, IGF-II (amino acids 1-67) (human, UniProt P01344 25-91). Briefly: cell-based or functional assay.
B1: the “IC50, IGF-II stimulated BA/F3 cell proliferation (MTS)” value (shortened to “IC50 … (MTS)”) was determined as 3.04 µg/mL.

For B2, the “IC50 … (MTS)” value was found to be 5.12 µg/mL.

B3: the “IC50 … (MTS)” value is 8.7 µg/mL.

With B4, the “IC50 … (MTS)” value stood at 5.56 µg/mL.

As to B5, the “IC50 … (MTS)” value was 0.68 µg/mL.

A further experiment deals with T1, IGF-II (amino acids 1-67). Briefly: SPR (Biacore T100): IgG captured on Protein G', ligand bound, then BP injected; competitor BP2. The protocol: (§1) BIACORE® T100 and a CM5 chip coated with Protein G were utilised to set up following assay. Approximately 1000 RU of Protein G′ was immobilized on a CM5 chip using standard amine chemistry immobilization method. Entire assay consisted of three sequential injection of following four reagents 1) Candidate IgG was injected onto Protein G′ at 10 ug/ml at 5 ul/min for 180 sec.
A general note: In SPR one partner is held on a chip, and binding of the other changes the refractive index at the surface.
As to B6, the “competition score (0 = does not compete significantly, 5 = competes strongly)” value was 3 score 0-5.

On to B7, for which the “competition score (0 = does not compete significantly, 5 = competes strongly)” value was 4 score 0-5.

As for B8, the “competition score (0 = does not compete significantly, 5 = competes strongly)” value amounted to 2 score 0-5.

As for B9, the “competition score (0 = does not compete significantly, 5 = competes strongly)” value amounted to 1 score 0-5.

B10: the “competition score (0 = does not compete significantly, 5 = competes strongly)” value was determined as 3 score 0-5.

Another experiment has as its target T1, IGF-II (amino acids 1-67). Briefly: SPR (Flexchip), Fab, second of duplicate; unit inferred.
B1 registered a Kd of 0.25 nM.

Molecule B2 came in with a Kd of 0.7 nM.

For B11, the Kd was determined as 0.3 nM.

Consider B3, for which the affinity, expressed as Kd, was 1.4 nM.

With B4, binding was put at a Kd of 1.6 nM.

In the case of B5, the affinity, expressed as Kd, was 1.2 nM.

Regarding B12, the Kd came to 1.1 nM.

In another experiment the target is T1, IGF-II (amino acids 1-67). The experiment is described as follows: SPR (Flexchip), Fab, first of duplicate; unit inferred.
For the molecule B1, the dissociation constant (Kd) stood at 0.12 nM.

In the case of B2, the Kd was found to be 5.2 nM.

The molecule B11 returned a Kd of 0.75 nM.

As for B3, the Kd is 0.58 nM.

For the molecule B4, the Kd was 0.77 nM.

In turn, B5 came in with a Kd of 0.45 nM.

On to B12, for which the dissociation constant Kd turned out to be 3.3 nM.

Another experiment has as its target T1, IGF-II (amino acids 1-67). The experiment is described as follows: SPR (Biacore T100): IgG captured on Protein G', ligand bound, then BP injected; competitor BP4. Here is the method: as §1
As for B6, the “competition score (0 = does not compete significantly, 5 = competes strongly)” value was 2 score 0-5.

For B7, the “competition score (0 = does not compete significantly, 5 = competes strongly)” value is 4 score 0-5.

On to B8, for which the “competition score (0 = does not compete significantly, 5 = competes strongly)” value was 1 score 0-5.

As to B9, the “competition score (0 = does not compete significantly, 5 = competes strongly)” value was determined as 0 score 0-5.

For B10, the “competition score (0 = does not compete significantly, 5 = competes strongly)” value was 2 score 0-5.

Another experiment has as its target T1, IGF-II (amino acids 1-67). The experiment is described as follows: competition SPR (Biacore T100), affinity in solution: Fab pre-incubated with ligand, free ligand read on immobilized huIR-A ECD; measurement #2; head prints 'KD nM'. Here is the method:
(§2) Competition SPR (BIACORE®) was performed under conditions of partially mass-transport limited conditions according to previously described methodology (Nieba et al., 1996). Approximately 16,700 relative response units (RU) of huIR-A (-exon11) ectodomain was coupled by standard amine chemistry to a BIACORE® CM5 chip sensor. Uncoated flow-cell surface was used as a reference. […] Regeneration of the surface was achieved by injection of 30 ul NaCltrate/NaCl pH 4.5. […] These Req estimates were subsequently plotted against total concentrations of Fab used and the resulting inhibition curve was utilised to calculate dissociation constant (KD).
In the case of B1, binding was characterised by a dissociation constant (Kd) of 1.11 nM.

Regarding B2, the Kd came out at 2.52 nM.

Molecule B4 displayed a dissociation constant Kd of 0.858 nM.

As for B5, the equilibrium dissociation constant (Kd) stood at 0.503 nM.

In a further experiment the target is T1, IGF-II (amino acids 1-67). Briefly: competition SPR (Biacore T100), affinity in solution: Fab pre-incubated with ligand, free ligand read on immobilized huIR-A ECD; measurement #1; head prints 'KD nM'. Here is the method: as §2
In turn, B1 came in with a Kd of 0.608 nM.

As for B2, binding was characterised by a dissociation constant (Kd) of 1.64 nM.

As for B11, the Kd turned out to be 2.62 nM.

B3 came in with a dissociation constant (Kd) of 3.99 nM.

For the molecule B4, the affinity, expressed as Kd, was 1.17 nM.

Consider B5, for which binding was put at a Kd of 1.03 nM.

Molecule B12 gave a Kd of 3.24 nM.

The next experiment addresses T1, IGF-II (amino acids 1-67). Briefly: cell-based or functional assay. The source holds these as a separate data set.
B9: the “IC50, IGF-II stimulated BaF3 cell proliferation (Guava ViaCount)” value was 2 nM and the “IC50, IGF-II stimulated BaF3 cell proliferation (Guava ViaCount), second study” value was approximately 7 nM.

The next experiment concerns the target IGF-I (UniProt P05019 49-118). The experiment is described as follows: cell-based or functional assay.
For B1, the “decrease in IGF-I stimulated cell proliferation, sFab at 50 µg/ml” value (“decrease” below) was approximately 30%.

Regarding B2, the “decrease” value is approximately 30%.

For B11, the “decrease” value is approximately 30%.

Consider B4, for which the “decrease” value is approximately 30%.

As to B5, the “decrease” value was approximately 30%.
